Source: US20190135921A1, “METHODS OF PREVENTING OR TREATING SLAMF7 POSITIVE AND SLAMF7 NEGATIVE CANCERS” (ADAERATA, LIMITED PARTNERSHIP, priority 2016, published 2019)

Experiments:
[1] = test system: Colo205, SW480 and SW620 cells; test: in vitro phagocytosis assay, mouse BMDMs with human non-hematopoietic tumor cells; assay type: cell-based; details: BMDMs pretreated with LPS; FIG. 2R
Method: In vitro phagocytosis assays. For the microscopy-based assay, 5×10^4 macrophages were seeded overnight in a 24-well tissue culture plate. On the next day, target cells were washed and labeled with 2.5 μM of carboxyfluorescein succinimidyl ester (CFSE), using the CFSE Cell Proliferation Kit (C34554; Life Technologies, Burlington, ON, Canada). After incubating macrophages in serum-free medium for 2 hours, 2×10^5 CFSE-labeled target cells were added to the macrophages, in the presence of anti-CD47 Ab or control IgG (10 μg/mL). After incubation for 2 hours at 37° C., macrophages were extensively washed and imaged with an inverted microscope (Carl Zeiss Axiovert™ S100 TV). The phagocytosis efficiency was calculated as the number of macrophages containing CFSE^+ target cells per 100 macrophages. […] Cells were then stained on ice for 30 minutes with APC conjugated-anti-human Tac (CD25) and PE-conjugated MAb F4/80, and analyzed by flow cytometry. After gating on F4/80^+Tac^− cells (which include macrophages but exclude non-phagocytosed Tac-positive L1210 cells), phagocytosis efficiency was determined as the percentage of F4/80^+Tac^− cells containing CFSE-derived green fluorescence (detected in FL1 channel). […] They were then stained with APC-conjugated anti-F4/80 and analyzed by flow cytometry. […] Phagocytosis was monitored by microscopy. […]

[2] = test system: thymocytes; test: induction of apoptotic thymocytes (annexin V); assay type: cell-based, mouse; details: 1 μM, 10 hours, 37° C.; data not shown
[3] = target: T1, mouse CD11b (integrin alphaM, alpha subunit of Mac-1) (mouse, UniProt P05555 17-1153); test: anti-CD11b immunoprecipitation from WT and CD11b KO BMDM lysates, mass spectrometry
T1 construct: whole, on cells; Together with CD18 it constitutes Mac-1; Endogenous protein recovered from cell lysates; also called Mac-1 (CD11b); CR3 alpha subunit
T1 sequence (P05555 17-1153): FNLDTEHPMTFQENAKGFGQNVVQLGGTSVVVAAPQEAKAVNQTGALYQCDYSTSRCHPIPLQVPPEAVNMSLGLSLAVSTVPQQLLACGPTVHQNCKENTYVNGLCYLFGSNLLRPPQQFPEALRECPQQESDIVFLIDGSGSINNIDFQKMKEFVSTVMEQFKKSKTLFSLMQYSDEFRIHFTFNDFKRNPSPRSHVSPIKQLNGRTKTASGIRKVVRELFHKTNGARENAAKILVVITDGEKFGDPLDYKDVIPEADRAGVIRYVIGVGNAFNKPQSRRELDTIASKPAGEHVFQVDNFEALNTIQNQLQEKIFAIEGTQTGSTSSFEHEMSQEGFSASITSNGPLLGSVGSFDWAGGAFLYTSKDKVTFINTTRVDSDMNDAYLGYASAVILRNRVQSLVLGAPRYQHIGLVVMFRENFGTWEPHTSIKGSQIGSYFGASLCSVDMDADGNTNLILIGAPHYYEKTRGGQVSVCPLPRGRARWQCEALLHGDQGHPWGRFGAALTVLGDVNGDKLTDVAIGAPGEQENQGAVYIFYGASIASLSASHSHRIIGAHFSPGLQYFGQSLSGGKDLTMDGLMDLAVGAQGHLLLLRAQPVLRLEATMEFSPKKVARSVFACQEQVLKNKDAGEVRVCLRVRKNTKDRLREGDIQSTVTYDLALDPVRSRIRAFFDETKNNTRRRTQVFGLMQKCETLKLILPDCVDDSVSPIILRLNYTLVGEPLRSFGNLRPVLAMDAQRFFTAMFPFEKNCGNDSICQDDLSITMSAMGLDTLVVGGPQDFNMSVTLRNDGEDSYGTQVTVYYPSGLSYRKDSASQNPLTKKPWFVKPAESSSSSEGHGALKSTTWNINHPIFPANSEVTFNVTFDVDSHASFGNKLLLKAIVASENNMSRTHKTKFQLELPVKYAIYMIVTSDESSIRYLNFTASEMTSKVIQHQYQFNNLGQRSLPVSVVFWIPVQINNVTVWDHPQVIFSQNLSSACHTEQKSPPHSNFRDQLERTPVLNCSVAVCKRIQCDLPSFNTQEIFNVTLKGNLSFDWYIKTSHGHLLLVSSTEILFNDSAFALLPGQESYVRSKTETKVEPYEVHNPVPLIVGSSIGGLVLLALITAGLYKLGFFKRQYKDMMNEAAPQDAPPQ
Method: (§1) Authenticated cells. (FIG. 9D) Lysates from the mouse macrophage cell line RAW264.7 expressing GFP alone or in combination with a FLAG-tagged version of mouse SLAMF7 (FLAG-SLAMF7) were immunoprecipitated with anti-FLAG. They were then probed by immunoblotting with anti-CD11b (Mac-1) or anti-SLAMF7. Total cell lysates were analyzed in parallel. (FIG. 9E) Co-localization of SLAMF7 and CD11b in RAW264.7 cells expressing GFP alone or with FLAG-SLAMF7 assessed by immunofluorescence. Semi-confluent RAW264.7 cells expressing GFP alone (bottom) or in combination with FLAG-SLAMF7 (top) were fixed and stained with antibodies against FLAG, CD11b (Mac-1) or CD18, as detailed in Example 1. Staining was detected by confocal microscopy. Scale bar, 5 μm. […] (FIG. 9F) As in FIG. 9E, except that only RAW264.7 cells expressing FLAG-SLAMF7 were analyzed and that antibodies coupled to different fluorophores were used. […] (FIG. 9G-A and FIG. 9G-B) RAW264.7 derivatives expressing GFP alone or in combination with FLAG-SLAMF7 were analyzed by flow cytometry, using antibodies directed against FLAG and SLAMF7 (dotted lines). […]
(§2) Immunoprecipitations, mass spectrometry, immunoblots. […] In brief, immunoprecipitated proteins were digested with trypsin (Promega, Madison, Wis.) and analyzed by LC-MS/MS on a LTQ Orbitrap™ Velos (ThermoFisher Scientific, Bremen, Germany) equipped with a Proxeon nanoelectrospray™ ion source. […]

[4] = target: T1, mouse CD11b (integrin alphaM, alpha …); test: anti-FLAG IP from RAW264.7 cells expressing FLAG-SLAMF7, anti-CD11b immunoblot; confocal co-localization
Method: as §1, §2

In the case of lipopolysaccharide [LPS], the “phagocytosis of non-hematopoietic targets” value [1] is reported as “phagocytosis of non-hematopoietic targets was seen”.

For `C[C@@H]1C[C@H]2[C@@H]3CCC4=CC(=O)C=C[C@]4(C)[C@@]3(F)[C@@H](O)C[C@]2(C)[C@@]1(O)C(=O)CO` [dexamethasone], the “cells becoming apoptotic (annexin V-positive)” value [2] was “about 70%”.

B1: mouse CD64 (Fc receptor) (receptor, UniProt P26151 25-404, looked up)
chain: EVVNATKAVITLQPPWVSIFQKENVTLWCEGPHLPGDSSTQWFINGTAVQISTPSYSIPEASFQDSGEYRCQIGSSMPSDPVQLQIHNDWLLLQASRRVLTEGEPLALRCHGWKNKLVYNVVFYRNGKSFQFSSDSEVAILKTNLSHSGIYHCSGTGRHRYTSAGVSITVKELFTTPVLRASVSSPFPEGSLVTLNCETNLLLQRPGLQLHFSFYVGSKILEYRNTSSEYHIARAEREDAGFYWCEVATEDSSVLKRSPELELQVLGPQSSAPVWFHILFYLSVGIMFSLNTVLYVKIHRLQREKKYNLEVPLVSEQGKKANSFQQVRSDGVYEEVTATASQTTPKEAPDGPRSSVGDCGPEQPEPLPPSDSTGAQTSQS
notes: whole, on cells
B1: no binding [3].

B2: FLAG-tagged version of mouse SLAMF7 (receptor, UniProt Q8BHK6 23-333, looked up)
chain: SGTLKKVAGALDGSVTFTLNITEIKVDYVVWTFNTFFLAMVKKDGVTSQSSNKERIVFPDGLYSMKLSQLKKNDSGAYRAEIYSTSSQASLIQEYVLHVYKHLSRPKVTIDRQSNKNGTCVINLTCSTDQDGENVTYSWKAVGQGDNQFHDGATLSIAWRSGEKDQALTCMARNPVSNSFSTPVFPQKLCEDAATDLTSLRGILYILCFSAVLILFAVLLTIFHTTWIKKGKGCEEDKKRVDRHQEMPDLCPHLEENADYDTIPYTEKRRPEEDAPNTFYSTVQIPKVVKSPSSLPAKPLVPRSLSFENVI
notes: whole, on cells; It was immunoprecipitated with anti-FLAG from RAW264.7 lysates; also called FLAG-SLAMF7; not shown: FLAG tag
B2: binds [4].

B3: mouse CD16 (Fc receptor) (receptor, UniProt P08508 31-261, looked up)
chain: ALPKAVVKLDPPWIQVLKEDMVTLMCEGTHNPGNSSTQWFHNGRSIRSQVQASYTFKATVNDSGEYRCQMEQTRLSDPVDLGVISDWLLLQTPQRVFLEGETITLRCHSWRNKLLNRISFFHNEKSVRYHHYKSNFSIPKANHSHSGDYYCKGSLGSTQHQSKPVTITVQDPATTSSISLVWYHTAFSLVMCLLFAVDTGLYFYVRRNLQTPREYWRKSLSIRKHQAPQDK
notes: whole, on cells
B3: no binding [3].
